According to patent publication US10900053, “Genome-modified recombinant adeno-associated virus vectors” (University of Florida Research Foundation, Incorporated):

Legend:
Details in all cases: tags: Sigma; label: 32P
[1] = target: T1, Glucocorticoid receptor (GR) (UniProt P04150 P04150:1-777); assay: EMSA; 20 min 25 C, 6% gel 0.5xTBE; competed by 10-fold excess unlabeled GRE and 2- to 50-fold unlabeled D-sequence, not by NS (FIG. 3B)
Excerpt: (§1) In contrast, both D-sequences in the scAAV2 genomes are present in double-stranded forms. Since GR activation had no effect on the transduction efficiency for ssAAV2 vectors, it was hypothesized that the D-sequence might contain a putative GRE site. Indeed, there exists a sequence, GGTTCCT, at the end of the D-sequence, which shares partial homology to the consensus GRE site, 5'-GGTA-CANNNTGT(T/C)CT-3' (SEQ ID NO: 1) (34). The TGTTCT half-site is an essential core element which has been reported to be sufficient to relay glucocorticoid signaling (34). To experimentally test the possibility whether purified GR protein could bind to the D-sequence, electrophoretic mobility-shift assays (EMSAs) were carried out using double-stranded D-sequence oligonucleotides (D: 5'-[…]-3') (SEQ ID NO: 6). One of the conventional double-stranded GRE sequences (GRE: 5'-[…]-3') (SEQ ID NO: 13), and a non-specific (NS) sequence (NS: 5'-[…]-3') (SEQ ID NO: 10) were used as appropriate positive and negative controls, respectively. Each of the ^32P-labeled oligonucleotide probes was individually incubated with purified GR proteins for 20 minutes at 25° C. and then subjected to EMSAs. […]

[2] = target: T1, Glucocorticoid receptor (GR); assay: EMSA; 20 min 25 C; unlabeled NS does not compete GRE probe (FIG. 3B lane 6)
Excerpt: as §1

[3] = target: T1, Glucocorticoid receptor (GR); assay: EMSA; 20 min 25 C; GR binding to GRE only slightly more efficient than to D by densitometry; unlabeled D competes GRE probe at 2- to 50-fold excess

T1 sequence (P04150 whole entry, one chain of several): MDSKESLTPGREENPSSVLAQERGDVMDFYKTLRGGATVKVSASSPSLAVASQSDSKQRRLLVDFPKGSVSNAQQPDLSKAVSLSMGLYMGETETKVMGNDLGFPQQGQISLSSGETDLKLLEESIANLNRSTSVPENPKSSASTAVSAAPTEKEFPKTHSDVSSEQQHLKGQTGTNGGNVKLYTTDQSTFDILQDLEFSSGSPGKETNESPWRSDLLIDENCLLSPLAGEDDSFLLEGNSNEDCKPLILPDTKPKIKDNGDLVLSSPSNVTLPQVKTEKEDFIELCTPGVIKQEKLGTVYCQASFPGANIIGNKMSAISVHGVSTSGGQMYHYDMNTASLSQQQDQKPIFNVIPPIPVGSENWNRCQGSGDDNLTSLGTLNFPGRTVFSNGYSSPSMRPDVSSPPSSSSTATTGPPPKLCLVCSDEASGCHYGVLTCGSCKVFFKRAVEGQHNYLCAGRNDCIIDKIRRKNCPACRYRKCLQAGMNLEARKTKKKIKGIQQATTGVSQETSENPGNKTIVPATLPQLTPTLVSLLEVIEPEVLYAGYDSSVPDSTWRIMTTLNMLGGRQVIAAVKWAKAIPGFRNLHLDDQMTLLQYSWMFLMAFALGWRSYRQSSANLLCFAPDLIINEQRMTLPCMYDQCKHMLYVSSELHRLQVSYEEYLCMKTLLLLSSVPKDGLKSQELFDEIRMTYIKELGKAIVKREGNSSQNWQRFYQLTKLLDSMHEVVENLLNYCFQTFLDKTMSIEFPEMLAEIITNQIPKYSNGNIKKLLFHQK

B1: GRE (dsDNA)
DNA 1: CTAGGCTGTACAGGATGTTCTGCCTAG
DNA 2: CTAGGCAGAACATCCTGTACAGCCTAG
binding result [1]: binds

B2: Non-specific (NS) (dsDNA)
DNA 1: TATTAGATCTGATGGCCGCT
DNA 2: AGCGGCCATCAGATCTAATA
binding result [2]: no binding

B3: AAV2 D-sequence (D) (dsDNA)
DNA 1: CTCCATCACTAGGGGTTCCT
DNA 2: AGGAACCCCTAGTGATGGAG
binding result [3]: binds
